Assay [1] has as its target HLA.A2 with NY-ESO-1: 157-165 on IM9 cells. The assay can be described thus: cell-based or functional assay.
Assay [2] deals with HLA.A2/hB2M/NY-ESO-1: 157-165 WT on 3T3 cells (human) (UniProt P04439). Briefly: cell-based or functional assay.

B1: NY-ESO CAR-T 24958N VL-VH (protein, part only; not given: scFv linker, hinge, signalling domains, not shown: large carriers)
chain, part: DIQMTQSPSSLSASVGDRVTITCRTSQSISRYLNWYQQKPGKAPKLLIFAASSLQSGVPSRFSGSGSGADFTLTISSLQPEDFATYYCQQSYSTPPITFGQGTRLEIKQVQLQESGPGLVKPSQTLSLTCTVSGGSIISDGYYWSWIRQHPGKGLEWIGYVDYSGNTYYNPSLKSRIIMSVDTSKNQFSLKLTSVTAADTAVYFCVREGPLRDAFEIWGQGTMVTVSS
On to B1, for which the Max Fold (RLU), NFAT-luciferase came out at 0.9 fold in assay [1] and 6.4 fold in assay [2]. This molecule returned an EC50 (#of APC cells), NFAT-luciferase in assay [2] of 19900 APC cells.

B2: NY-ESO CAR-T 24958N VH-VL (protein, part only; not given: scFv linker, hinge, signalling domains, not shown: large carriers)
chain, part: QVQLQESGPGLVKPSQTLSLTCTVSGGSIISDGYYWSWIRQHPGKGLEWIGYVDYSGNTYYNPSLKSRIIMSVDTSKNQFSLKLTSVTAADTAVYFCVREGPLRDAFEIWGQGTMVTVSSDIQMTQSPSSLSASVGDRVTITCRTSQSISRYLNWYQQKPGKAPKLLIFAASSLQSGVPSRFSGSGSGADFTLTISSLQPEDFATYYCQQSYSTPPITFGQGTRLEIK
Consider B2, for which, in assay [1], the Max Fold (RLU), NFAT-luciferase was found to be 1 fold. In assay [2], this molecule registered an EC50 (#of APC cells), NFAT-luciferase of 24500 APC cells and a Max Fold (RLU), NFAT-luciferase of 6.7 fold.

B3: NY-ESO CAR-T 24959N VH-VL (protein, part only; not given: scFv linker, hinge, signalling domains, not shown: large carriers)
chain, part: QLQLLESGPGLVKPSETLSLICTVSGGSIRGSSYYWGWIRQPPEKGLEWIGSIYSSGSTYYNPSLKSRVTISADTSKNQFSLKLSSVTAADTAVYYCARHGGITAVQLEFDPWGQGTLVTVSSDIQMTQSPSSLSASVGDRVTITCQASQDISNYLKWYQQKPGKAPKILIHDASNLEIGVPSRFSGSGAGTDFIFTISSLQPEDIGTYYCQQYDNLPITFGQGTRLEIK
In the case of B3, the Max Fold (RLU), NFAT-luciferase in assay [1] is 1.1 fold. In assay [2], this molecule showed an EC50 (#of APC cells), NFAT-luciferase of 14200 APC cells and a Max Fold (RLU), NFAT-luciferase of 13.3 fold.

B4: NY-ESO CAR-T 24959N VL-VH (protein, part only; not given: scFv linker, hinge, signalling domains, not shown: large carriers)
chain, part: DIQMTQSPSSLSASVGDRVTITCQASQDISNYLKWYQQKPGKAPKILIHDASNLEIGVPSRFSGSGAGTDFIFTISSLQPEDIGTYYCQQYDNLPITFGQGTRLEIKQLQLLESGPGLVKPSETLSLICTVSGGSIRGSSYYWGWIRQPPEKGLEWIGSIYSSGSTYYNPSLKSRVTISADTSKNQFSLKLSSVTAADTAVYYCARHGGITAVQLEFDPWGQGTLVTVSS
Turning to B4, the Max Fold (RLU), NFAT-luciferase in assay [1] worked out at 0.8 fold; in assay [2] it was 28.6 fold. For the same molecule, in assay [2], the EC50 (#of APC cells), NFAT-luciferase came to 24000 APC cells.

The values are drawn from patent publication US20220251215A1.
